Measured values as given in the supplement of paper PMC9170038.

System: MS2 coat protein
Test: apparent KD of MS2 coat protein; designed switch direction (-1 OFF switch, 1 ON switch): -1; higher = weaker reporter binding
Summary of the method: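 Apparent KD, taken as the median over clusters for each design, was obtained by curve-fitting normalised cluster fluorescence. Designed RNA switches had been transcribed on Illumina chips by stalled E. coli RNA polymerase and titrated with SNAP-549-labelled MS2 coat protein, doubling from 0.7 or 1.5 nM to 3 µM.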

[1] = Eterna round: R95, input ligand: microRNA oligo, concentration not stated
[2] = input ligand: microRNA oligo, concentration not stated
[3] = Eterna round: R95, input ligand: FMN 200 uM
[4] = Eterna round: R95, input ligand: none

Row | Sequence | apparent KD of MS2 coat protein [1] | apparent KD of MS2 coat protein (input ligand: FMN 200 uM) | apparent KD of MS2 coat protein (input ligand: none) | apparent KD of MS2 coat protein [2] | other results
1 | AUUGAGCUAGGAUAUACAUGAGGAUCACCCAUGUAGCAAAAUAGCUAUACAUGAUCGGGUAGAAGGAGCGCGAG [Tirivela] (puzzle: Exclusion 3) | 14.3 nM |  |  |  | 
2 | AUUGUGUGAGGAUAUUAGUAGUAAAUAAAUAAAAUUAUUACUGAGAAGGCACAUGAGGAUCACCCAUGUUCCUU [Salish 062 v5] (Eterna round: R97, puzzle: Exclusion 4) |  | 131 nM | 18.9 nM |  | 
3 | AUUGUUUGAUACCUCUAAUACAUGAGGAUCACCCAUGUUAUCGAGGAUAUGCAGUAGAGUGGAGAGCAGAAGGCGAAGUAAGUG [JR_ExcNG3_Sub028] (Eterna round: R96, puzzle: Exclusion NG 3) |  | 27 nM | 13.7 nM | 14.4 nM | 
4 | AUUUAGAGAGGAUAUAUUAUGUGAAACAUGAGGAUCACCCAUGUAAUAUGAUGGAUGUAAAUAGAAGGCUCAUUUA [Mat - Exclusion 5 - JL mod - D23] (puzzle: Exclusion 5) | 43.5 nM |  |  |  | apparent KD of MS2 coat protein [3]: 32.9 nM; apparent KD of MS2 coat protein [4]: 56.4 nM
5 | AUUUAGUCAGGAUAUUAGUAGUAAAUGAAUAAAAUUAUUACUGAGAAGGGACAUGAGGAUCACCCAUGUGUCUA [Mat - Exclusion 4 - Eli Mod - D8] (Eterna round: R97, puzzle: Exclusion 4) |  | 60 nM | 28.5 nM |  | 
6 | AUUUGCACGCUGCGGUCCUACAUGAGGAUCACCCAUGUGGUCUGGUGGCGUGGGUCGCCGGACUUGGCUCGUCUUGG [salish99_S_TOV1_R5_034] (Eterna round: R97, puzzle: Sensor, turn-off variant 1) |  | 14.9 nM | 14.7 nM |  | 
7 | AUUUUAAUAUAGGAUAUCGAAUUUAUUAUUUAACGAGAAGGAUAAACAUGAGGAUCACCCAUGUGGUAUCAUGG [JMFs Solution 2] (puzzle: Exclusion 6) | 113 nM |  |  |  | 
8 | AUUUUGAAUGUAAGGAUAUCAAUACGAGGGCGUGAUGAGAAGGUACAUGAGGAUCACCCAUGUGGCGAGCUCAC [BmEX4 B.24] (Eterna round: R97, puzzle: Brourd's mod of Exclusion 4) |  | 33.5 nM | 23.7 nM |  | 
9 | AUUUUGUCAGGAUAUGAGUAGUAGGACGAAAGUGUUAUUAUUUAGAAGGGACAUGAGGAUCACCCAUGUUUUCC [Bring Us a Shrubbery-04] (puzzle: Exclusion 4) | 12 nM |  |  |  | 
10 | CAAAACUGAGGAUAUACAUGAGGAUCACCCAUGUCCAAGGUCCUGGGCGGAUGCUGCUGUAGAAGGCGGAAAGA [Diatsobi] (puzzle: Exclusion 3) | 21.8 nM |  |  |  | 
11 | CAAAAGGGAGGAUAUACAUGAGGAUCACCCAUGUACGGUUCACGGGUAGGUGCGUAUAGUAGAAGGCCCGCAUA [Abiace] (Eterna round: R97, puzzle: Exclusion 3) |  | 172 nM | 83.4 nM |  | 
12 | CAAACAAGCGAAAGAUCCCACAUGAGGAUCACCCAUGUGCUCGUCUUAUAAGGUACUGUGACGAAAGUCACGGUACC [Sensor 3, v1 - 91 v21] (Eterna round: R97, puzzle: Sensor, turn-off variant 1) |  | 38.4 nM | 45.3 nM |  | 
13 | CAAACGGCUUUAGGAUAUGACUUUUCGUACAUGAGGAUCACCCAUGUCAGGACUGGUGGUGCGAGUCAGAAGGAGAGUCAAGAA [Eternabot solution 30] (Eterna round: R96, puzzle: Exclusion NG 2) |  | 94.3 nM | 176 nM | 99.2 nM | 
14 | CAAAUUGCAGGAUAUACUGGGCCAGAGCCAUCGUGUAUUCCACAUGAGGAUCACCCAUGUAGAAGGGCACGUAC [Aqueran] (puzzle: Exclusion 2) | 23.8 nM |  |  |  | 
15 | CAACAGGGAGGAUAUACAUGAGGAUCACCCAUGUUCGAGCGUCCUUGAACUACCUCUGGUAGAAGGCCCACACG [Bibiorbi] (Eterna round: R97, puzzle: Exclusion 3) |  | 147 nM | 56.9 nM |  | 
16 | CAACCGAAUCAGUGAAUGCCGACAUGAGGAUCACCCAUGUGUGAGGAUAUUUUAGUAGAGAACUAAAAGAAGGCACCUGGAAAG [Eternabot solution 20] (Eterna round: R96, puzzle: Exclusion NG 3) |  | 70.2 nM | 39.8 nM | 22.4 nM | 
17 | CAACUGCAUGUGAGGAUAUGCACCGGCCAAGCCGGGCAGAAGGCACAUGAGGAUCACCCAUGUCAUCCUAUUGC [Esusgeraon] (puzzle: Brourd's mod of Exclusion 4) | 12.4 nM |  |  |  | 
18 | CAAGUGCCGGAAGGAUAUCAGCGAUGUCACGCUUGAGAAGGUCUGUGCACAUGAGGAUCACCCAUGUCCGCCAGACUCCUUAAC [Eternabot solution 21] (Eterna round: R96, puzzle: Exclusion NG 1) |  |  |  | 7.68 nM | 
19 | CAAUAAAAGCGAGGAUAUCCGUAUAAAGAUACAGGAGAAGGUGCGGGUACUCCUCACAUGAGGAUCACCCAUGUAAGAAAUAAA [Erxeraso] (Eterna round: R96, puzzle: Exclusion NG 1) |  | 67.4 nM | 57.1 nM | 33.7 nM | 
20 | CACAAGCUUUUUUGAUGCAUUUUAGUUGGUUGCCUUUUUACAUGAGGAUCACCCAUGUUUGUGUAGCUCGAUCUUUU [JR_SV3TOV2_Sub078] (puzzle: Sensor v3, turn-off variant 2) | 29 nM |  |  |  | apparent KD of MS2 coat protein [3]: 36.5 nM; apparent KD of MS2 coat protein [4]: 41.2 nM
21 | CACCGUAACAGAGGAUAUGAUACAUGAGGAUCACCCAUGUAAUAAAUGAGAAUUUCGAAUGUACCUCAGAAGGCUGGAACCGGC [Ostricism 80 - Jieux - Exclusion NG 2] (Eterna round: R96, puzzle: Exclusion NG 2) |  |  |  | 33.9 nM | 
22 | CACCGUUACUGAGGAUAUCCUACAUGAGGAUCACCCAUGUAAUAAAUGAGAAUUUCGGAUGUAUUGGAGAAGGCAGAAAUCGGC [Ostricism 62 - Jieux - Exclusion NG 2] (Eterna round: R96, puzzle: Exclusion NG 2) |  | 52.7 nM | 58.4 nM | 48.4 nM | 
23 | CACCGUUAGUGAGGAUAUAUUACAUGAGGAUCACCCAUGUAAUAAAUGAGAAUUUCGGAUGUAUGAUAGAAGGCACAAAUCGGC [Ostricism 52 - Jieux - Exclusion NG 2] (Eterna round: R96, puzzle: Exclusion NG 2) |  | 11.2 nM | 13.1 nM | 11.2 nM | 
